± gives the standard deviation of the averaged measurements.
What follows are sequences tested on ATP (assay: switch fluorescence ratio, 500 uM ATP over buffer (Cy3 cluster intensity, sum of 5 cycles each) (fold (ratio)); higher = stronger signal-on switching upon ATP binding; sequences stand for … in TCGTCGGCAGCGTCAGATGTGTATAAGAGACAGTTTTTTTTTTTTTTTTTTTTTTTTT…TC). Conditions: aptamer strand: ATP DNA aptamer (quencher-CACCTGGGGGAGTATTGCGGAGGAAGG + anchor), 100 nM annealed; ATP concentration: 500 uM.
Outline: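 Imaging in selection buffer was followed by imaging after 15 min with 500 uM ATP at 22 °C, for Cy3-labelled switching-strand clusters annealed to 100 nM quencher-labelled ATP aptamer on a modified Illumina MiSeq flow-cell. Five of these buffer/ATP cycles ran, separated by NaOH stripping and re-annealing. The fluorescence ratio per cluster is summed target-cycle over summed buffer-cycle Cy3 intensity, averaged per switch-domain sequence; clusters outside 100-1000 RFU were removed.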
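Further: ATP exposure 15 min at 22 °C before imaging.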

Sequence	switch fluorescence ratio
GTGTTTAGTG	0.9787 ± 0.0029
TTGAAAGGGT	0.981 ± 0.087
ATTATGATTG	0.98 ± 0.028
AGAGGGTTAC	0.999 ± 0.036
GGCTGAGCCT	0.991 ± 0.038
AGATATCATG	0.973 ± 0.037
TGTTTTTGTA	1.07 ± 0.13
AATGTTGTCC	1.007 ± 0.0094
GTTGGGGAGT	0.9776 ± 0.0062
GGAACATATA	1.01 ± 0.0064
TTATGCTAAA	0.994 ± 0.04
GGGGTAGGCA	0.9742 ± 0.0033
TAGCGTAAAT	0.9913 ± 0.0049
GGGTATTCTG	0.98 ± 0.053
GCGTGGGAGG	1.018 ± 0.0053
TATCCTGGCG	1.03 ± 0.057
GATATGTGGA	0.995 ± 0.032
GCAGAATATT	0.998 ± 0.029
AAGGGGGGCT	0.996 ± 0.03
TTTGTTAAGT	1.01 ± 0.05
CACTTAGGCT	1.01 ± 0.011
TCCTCAGTGC	1.93 ± 0.13
AACGGGCTTT	0.969 ± 0.013
AGTCGCCCTG	0.985 ± 0.05
TTTTCATTAT	1.046 ± 0.0066

Sequence	switch fluorescence ratio
AGGTGTAACA	1.15 ± 0.2
ACACAGTACT	1.37 ± 0.09
TTTCCGGAAT	1.661 ± 0.011
CCTAGGCCCG	1.03 ± 0.053
GGATTGTTTG	1.009 ± 0.01
AATTTGCGTT	0.999 ± 0.013
TTTGGAATTG	0.988 ± 0.016
TGGGAGGTTG	0.994 ± 0.04
TGGTTAATCG	0.9949 ± 0.0079
TTTGCAGAAA	0.996 ± 0.018
TTTGGCAGGT	1.03 ± 0.026
TCAGGGTTTT	1.01 ± 0.018
CCTAGGGTGT	2.12 ± 0.32
GGGGGGAAGG	1.01 ± 0.03
AATCGATTTG	0.989 ± 0.032
TTAGGCGAGG	1.08 ± 0.16
GGGTATCTGT	1.01 ± 0.032
TCGTTACCTT	1.135 ± 0.0013
GGTTGCGGGG	0.9855 ± 0.0082
TGGGGTGTGG	1.23 ± 0.36
CCGCAGCGGA	2.12 ± 0.27
CTAAAAGGGA	0.95 ± 0.033
ATAGTATATG	0.9786 ± 0.0088
TAATTCTTGG	0.972 ± 0.046
TTTTGTACGG	1.01 ± 0.018

Sequence	switch fluorescence ratio
CCAGAATTCG	0.98 ± 0.024
ATTATGCTTT	1 ± 0.021
GCCTACATTA	0.997 ± 0.022
TCGTAATGGT	1.05 ± 0.083
CCATTTTTTA	0.9825 ± 0.0097
GGGTAATGGG	0.982 ± 0.024
ATTGGAAGGC	0.967 ± 0.017
GCCGATTATA	1 ± 0.00097
CGGGAGAAAT	1.24 ± 0.34
ATGACTTGCG	1 ± 0.023
GAAGGCCCTG	1.01 ± 0.04
TCGCGCTATT	1.34 ± 0.39
TACTTGATCT	1.001 ± 0.0033
CATGATAGGG	1.01 ± 0.031
GGGGCAGTTA	1 ± 0.025
CGTGGAACGA	1.01 ± 0.058
AAGCGGGG	1.006 ± 0.002
GGTTCAACAT	0.985 ± 0.049
AGTTCATTGG	1.04 ± 0.059
TCGGGTCCAT	1 ± 0.026
ATGAGACCCT	1.07 ± 0.036
CAACTGCATA	1.98 ± 0.063
ACACTGCCAT	1.16 ± 0.032
GCACGGGCAC	1.18 ± 0.18
TATTGGGCCT	1 ± 0.051

Sequence	switch fluorescence ratio
TGGGGGTACG	1.028 ± 0.0016
GACTTTTTTC	0.9748 ± 0.0053
AGATGTCTAC	0.989 ± 0.018
ATCAAGGGTT	0.991 ± 0.025
TGTTTGGAGG	0.985 ± 0.022
TCTGTTCTTG	0.987 ± 0.012
ACCAGTGAGT	0.969 ± 0.011
GCGCTCGAGT	1.018 ± 0.0074
CGGGAGAGGT	0.988 ± 0.011
TCATGCCGGG	1.04 ± 0.014
AGCGTCAGCC	0.99 ± 0.05
TGGGGTTTGA	0.997 ± 0.032
ATGTTTTTTC	0.977 ± 0.037
GGGACAGGTA	1.02 ± 0.022
GGTTCTGGCG	0.992 ± 0.045
ACTAGCGGCG	1.05 ± 0.024
GCACCATAGC	1.06 ± 0.011
GGTTGTTCTG	0.997 ± 0.015
TAGGATGTGT	1 ± 0.0056
AGGGTAGGGG	0.994 ± 0.03
TTAGGTTTTT	1.08 ± 0.19
TCTAGGACGT	1.02 ± 0.019
TGCGTTGGAG	1.08 ± 0.057
CAGTGAGAAC	1.01 ± 0.025
TATGTAGATT	1.017 ± 0.01

From the supplement of paper PMC10126150
